Experimental data from the supplement of paper PMC9112550, “Optimization of the antimicrobial peptide Bac7 by deep mutational scanning” (BMC Biology, 2022).
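Further: peptides expressed intracellularly from a pBAD plasmid library in pooled LB shake-flask culture, induced with 0.3% L-arabinose, DNA abundance read by NGS, three biological replicates, DESeq2 with apeglm shrinkage.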

The sequences below were run on Escherichia coli TOP10 (assay: shrunken log2 fold change of peptide-encoding DNA abundance (4.5 h post-induction vs induction); higher = less antimicrobial activity (less host growth inhibition)). Details: time post-induction: 4.5 h; library: site-saturation at positions 5, 18, 19, 20.
With RRIRWRPPRLPRPRPRPPKDPRP the “shrunken log2 fold change” value was 0.0853. In the case of RRIRWRPPRLPRPRPRPPKQPRP, the “shrunken log2 fold change” value is reported as 1.07. In the case of RRIRWRPPRLPRPRPRPPLPPRP, the “shrunken log2 fold change” value is reported as 1.07. For RRIRWRPPRLPRPRPRPPNDPRP, the “shrunken log2 fold change” value was 0.0849. In the case of RRIRWRPPRLPRPRPRPPPKPRP, the “shrunken log2 fold change” value is reported as 0.945. In the case of RRIRWRPPRLPRPRPRPPTIPRP, the “shrunken log2 fold change” value is reported as -0.0126. RRIRWRPPRLPRPRPRPPTLPRP was tested, and the “shrunken log2 fold change” value was 0.315. With RRIRWRPPRLPRPRPRPPTWPRP the “shrunken log2 fold change” value was 0.802. RRIRWRPPRLPRPRPRPPVHPRP was tested, and the “shrunken log2 fold change” value was -0.221. In the case of RRIRWRPPRLPRPRPRPPVNPRP, the “shrunken log2 fold change” value is reported as 0.13. With RRIRWRPPRLPRPRPRPPWTPRP the “shrunken log2 fold change” value was 0.688. RRIRWRPPRLPRPRPRPPYAPRP was tested, and the “shrunken log2 fold change” value was 0.426. For RRIRWRPPRLPRPRPRPPYHPRP, the “shrunken log2 fold change” value was -0.106. RRIRWRPPRLPRPRPRPQCPPRP was tested, and the “shrunken log2 fold change” value was -0.357. In the case of RRIRWRPPRLPRPRPRPQCSPRP, the “shrunken log2 fold change” value is reported as 0.221. RRIRWRPPRLPRPRPRPQDMPRP was tested, and the “shrunken log2 fold change” value was -0.199. With RRIRWRPPRLPRPRPRPQFNPRP the “shrunken log2 fold change” value was -0.498. For RRIRWRPPRLPRPRPRPQGNPRP, the “shrunken log2 fold change” value was -1.12. RRIRWRPPRLPRPRPRPQIDPRP was tested, and the “shrunken log2 fold change” value was -0.688. RRIRWRPPRLPRPRPRPQIKPRP was tested, and the “shrunken log2 fold change” value was -0.21. For RRIRWRPPRLPRPRPRPQIYPRP, the “shrunken log2 fold change” value was -0.000758. In the case of RRIRWRPPRLPRPRPRPQKDPRP, the “shrunken log2 fold change” value is reported as -0.154. For RRIRWRPPRLPRPRPRPQKLPRP, the “shrunken log2 fold change” value was 0.0774. With RRIRWRPPRLPRPRPRPQKSPRP the “shrunken log2 fold change” value was 0.0128. For RRIRWRPPRLPRPRPRPQLLPRP, the “shrunken log2 fold change” value was 0.115. RRIRWRPPRLPRPRPRPQMTPRP was tested, and the “shrunken log2 fold change” value was -0.0595. For RRIRWRPPRLPRPRPRPQQEPRP, the “shrunken log2 fold change” value was 0.0149. For RRIRWRPPRLPRPRPRPQQKPRP, the “shrunken log2 fold change” value was -0.0581. With RRIRWRPPRLPRPRPRPQQLPRP the “shrunken log2 fold change” value was -0.289. For RRIRWRPPRLPRPRPRPQQQPRP, the “shrunken log2 fold change” value was 0.108. For RRIRWRPPRLPRPRPRPQRLPRP, the “shrunken log2 fold change” value was 0.159. With RRIRWRPPRLPRPRPRPQSIPRP the “shrunken log2 fold change” value was -0.584. In the case of RRIRWRPPRLPRPRPRPQTKPRP, the “shrunken log2 fold change” value is reported as 0.434. For RRIRWRPPRLPRPRPRPQTSPRP, the “shrunken log2 fold change” value was -0.0118. For RRIRWRPPRLPRPRPRPQWYPRP, the “shrunken log2 fold change” value was -0.28. RRIRWRPPRLPRPRPRPQYDPRP was tested, and the “shrunken log2 fold change” value was -0.212. With RRIRWRPPRLPRPRPRPQYFPRP the “shrunken log2 fold change” value was -0.181. RRIRWRPPRLPRPRPRPQYLPRP was tested, and the “shrunken log2 fold change” value was -0.12. For RRIRWRPPRLPRPRPRPRALPRP, the “shrunken log2 fold change” value was 0.354. In the case of RRIRWRPPRLPRPRPRPRCKPRP, the “shrunken log2 fold change” value is reported as 0.33. With RRIRWRPPRLPRPRPRPRDFPRP the “shrunken log2 fold change” value was -0.031. In the case of RRIRWRPPRLPRPRPRPRDVPRP, the “shrunken log2 fold change” value is reported as 0.333. In the case of RRIRWRPPRLPRPRPRPRFCPRP, the “shrunken log2 fold change” value is reported as 0.234. RRIRWRPPRLPRPRPRPRMCPRP was tested, and the “shrunken log2 fold change” value was 0.272. In the case of RRIRWRPPRLPRPRPRPRNQPRP, the “shrunken log2 fold change” value is reported as 0.145. With RRIRWRPPRLPRPRPRPRPRPRP the “shrunken log2 fold change” value was 0.974. With RRIRWRPPRLPRPRPRPRPWPRP the “shrunken log2 fold change” value was 0.289. With RRIRWRPPRLPRPRPRPRRMPRP the “shrunken log2 fold change” value was 0.215. With RRIRWRPPRLPRPRPRPRSHPRP the “shrunken log2 fold change” value was 0.273. In the case of RRIRWRPPRLPRPRPRPRSVPRP, the “shrunken log2 fold change” value is reported as 0.247. For RRIRWRPPRLPRPRPRPRTNPRP, the “shrunken log2 fold change” value was 0.0699. With RRIRWRPPRLPRPRPRPRTVPRP the “shrunken log2 fold change” value was 0.0512. RRIRWRPPRLPRPRPRPRVWPRP was tested, and the “shrunken log2 fold change” value was 0.646. RRIRWRPPRLPRPRPRPRYKPRP was tested, and the “shrunken log2 fold change” value was -0.104. For RRIRWRPPRLPRPRPRPSAFPRP, the “shrunken log2 fold change” value was 0.0981. For RRIRWRPPRLPRPRPRPSANPRP, the “shrunken log2 fold change” value was 0.559. For RRIRWRPPRLPRPRPRPSDKPRP, the “shrunken log2 fold change” value was -0.246. With RRIRWRPPRLPRPRPRPSDWPRP the “shrunken log2 fold change” value was 0.12. RRIRWRPPRLPRPRPRPSGCPRP was tested, and the “shrunken log2 fold change” value was -0.0452. In the case of RRIRWRPPRLPRPRPRPSHFPRP, the “shrunken log2 fold change” value is reported as -0.151. For RRIRWRPPRLPRPRPRPSHRPRP, the “shrunken log2 fold change” value was -0.271. For RRIRWRPPRLPRPRPRPSHWPRP, the “shrunken log2 fold change” value was 0.3. With RRIRWRPPRLPRPRPRPSIAPRP the “shrunken log2 fold change” value was 0.0837. In the case of RRIRWRPPRLPRPRPRPSICPRP, the “shrunken log2 fold change” value is reported as -0.0271. For RRIRWRPPRLPRPRPRPSLFPRP, the “shrunken log2 fold change” value was 0.114. For RRIRWRPPRLPRPRPRPSNGPRP, the “shrunken log2 fold change” value was -0.19. With RRIRWRPPRLPRPRPRPSNLPRP the “shrunken log2 fold change” value was -0.0676. RRIRWRPPRLPRPRPRPSQGPRP was tested, and the “shrunken log2 fold change” value was 0.27. RRIRWRPPRLPRPRPRPSQYPRP was tested, and the “shrunken log2 fold change” value was -0.41. With RRIRWRPPRLPRPRPRPSTAPRP the “shrunken log2 fold change” value was 0.316. With RRIRWRPPRLPRPRPRPSTGPRP the “shrunken log2 fold change” value was 0.00923. With RRIRWRPPRLPRPRPRPSTHPRP the “shrunken log2 fold change” value was 0.667. In the case of RRIRWRPPRLPRPRPRPSVAPRP, the “shrunken log2 fold change” value is reported as 0.491. With RRIRWRPPRLPRPRPRPSVKPRP the “shrunken log2 fold change” value was -0.159. RRIRWRPPRLPRPRPRPSVQPRP was tested, and the “shrunken log2 fold change” value was 0.128. For RRIRWRPPRLPRPRPRPSVTPRP, the “shrunken log2 fold change” value was 0.145. RRIRWRPPRLPRPRPRPSWLPRP was tested, and the “shrunken log2 fold change” value was -0.167. With RRIRWRPPRLPRPRPRPSWTPRP the “shrunken log2 fold change” value was -0.0457. RRIRWRPPRLPRPRPRPSYPPRP was tested, and the “shrunken log2 fold change” value was -0.254. In the case of RRIRWRPPRLPRPRPRPTAKPRP, the “shrunken log2 fold change” value is reported as 0.0717. RRIRWRPPRLPRPRPRPTCDPRP was tested, and the “shrunken log2 fold change” value was 0.388. RRIRWRPPRLPRPRPRPTDRPRP was tested, and the “shrunken log2 fold change” value was -0.0423. For RRIRWRPPRLPRPRPRPTELPRP, the “shrunken log2 fold change” value was 0.135. In the case of RRIRWRPPRLPRPRPRPTIKPRP, the “shrunken log2 fold change” value is reported as -0.125. RRIRWRPPRLPRPRPRPTIPPRP was tested, and the “shrunken log2 fold change” value was -0.109. In the case of RRIRWRPPRLPRPRPRPTKWPRP, the “shrunken log2 fold change” value is reported as -0.126. For RRIRWRPPRLPRPRPRPTNFPRP, the “shrunken log2 fold change” value was 0.0339. With RRIRWRPPRLPRPRPRPTPNPRP the “shrunken log2 fold change” value was 0.519. For RRIRWRPPRLPRPRPRPTQWPRP, the “shrunken log2 fold change” value was 0.346. With RRIRWRPPRLPRPRPRPTRIPRP the “shrunken log2 fold change” value was 1.97. With RRIRWRPPRLPRPRPRPTSKPRP the “shrunken log2 fold change” value was -0.0975. RRIRWRPPRLPRPRPRPTSNPRP was tested, and the “shrunken log2 fold change” value was -0.0919. For RRIRWRPPRLPRPRPRPTTNPRP, the “shrunken log2 fold change” value was 0.217. In the case of RRIRWRPPRLPRPRPRPTTWPRP, the “shrunken log2 fold change” value is reported as 0.297. For RRIRWRPPRLPRPRPRPTVRPRP, the “shrunken log2 fold change” value was 1.14. For RRIRWRPPRLPRPRPRPTYGPRP, the “shrunken log2 fold change” value was 0.0553. With RRIRWRPPRLPRPRPRPVAFPRP the “shrunken log2 fold change” value was 0.313. For RRIRWRPPRLPRPRPRPVDFPRP, the “shrunken log2 fold change” value was 0.0271. RRIRWRPPRLPRPRPRPVDLPRP was tested, and the “shrunken log2 fold change” value was -0.107. With RRIRWRPPRLPRPRPRPVDVPRP the “shrunken log2 fold change” value was -0.0135. In the case of RRIRWRPPRLPRPRPRPVEEPRP, the “shrunken log2 fold change” value is reported as 0.0996. With RRIRWRPPRLPRPRPRPVEFPRP the “shrunken log2 fold change” value was -0.177. In the case of RRIRWRPPRLPRPRPRPVFRPRP, the “shrunken log2 fold change” value is reported as -0.153. In the case of RRIRWRPPRLPRPRPRPVFYPRP, the “shrunken log2 fold change” value is reported as -0.193. In the case of RRIRWRPPRLPRPRPRPVGPPRP, the “shrunken log2 fold change” value is reported as 0.281. RRIRWRPPRLPRPRPRPVIYPRP was tested, and the “shrunken log2 fold change” value was -0.279. RRIRWRPPRLPRPRPRPVKFPRP was tested, and the “shrunken log2 fold change” value was 0.0171. RRIRWRPPRLPRPRPRPVKNPRP was tested, and the “shrunken log2 fold change” value was 0.238. RRIRWRPPRLPRPRPRPVMIPRP was tested, and the “shrunken log2 fold change” value was 0.0436.
